Results on 1 molecule are retold here after patent publication US20210338733A1 (University of Pennsylvania, published 2021).

This assay has as its target T1, TnMUC1 in whole cell lysates of DU145 prostate cancer cells (single band of >200 kDa) (UniProt P15941 24-1255, limits assumed, Tn glycoform of MUC1 (aberrant O-glycosylation); sites not stated).
T1 construct: mature; also called mature TnMUC1
Description: Western blot on whole cell lysates of the prostate cancer cell line DU145.

T1 sequence (P15941 24-1255 limits assumed): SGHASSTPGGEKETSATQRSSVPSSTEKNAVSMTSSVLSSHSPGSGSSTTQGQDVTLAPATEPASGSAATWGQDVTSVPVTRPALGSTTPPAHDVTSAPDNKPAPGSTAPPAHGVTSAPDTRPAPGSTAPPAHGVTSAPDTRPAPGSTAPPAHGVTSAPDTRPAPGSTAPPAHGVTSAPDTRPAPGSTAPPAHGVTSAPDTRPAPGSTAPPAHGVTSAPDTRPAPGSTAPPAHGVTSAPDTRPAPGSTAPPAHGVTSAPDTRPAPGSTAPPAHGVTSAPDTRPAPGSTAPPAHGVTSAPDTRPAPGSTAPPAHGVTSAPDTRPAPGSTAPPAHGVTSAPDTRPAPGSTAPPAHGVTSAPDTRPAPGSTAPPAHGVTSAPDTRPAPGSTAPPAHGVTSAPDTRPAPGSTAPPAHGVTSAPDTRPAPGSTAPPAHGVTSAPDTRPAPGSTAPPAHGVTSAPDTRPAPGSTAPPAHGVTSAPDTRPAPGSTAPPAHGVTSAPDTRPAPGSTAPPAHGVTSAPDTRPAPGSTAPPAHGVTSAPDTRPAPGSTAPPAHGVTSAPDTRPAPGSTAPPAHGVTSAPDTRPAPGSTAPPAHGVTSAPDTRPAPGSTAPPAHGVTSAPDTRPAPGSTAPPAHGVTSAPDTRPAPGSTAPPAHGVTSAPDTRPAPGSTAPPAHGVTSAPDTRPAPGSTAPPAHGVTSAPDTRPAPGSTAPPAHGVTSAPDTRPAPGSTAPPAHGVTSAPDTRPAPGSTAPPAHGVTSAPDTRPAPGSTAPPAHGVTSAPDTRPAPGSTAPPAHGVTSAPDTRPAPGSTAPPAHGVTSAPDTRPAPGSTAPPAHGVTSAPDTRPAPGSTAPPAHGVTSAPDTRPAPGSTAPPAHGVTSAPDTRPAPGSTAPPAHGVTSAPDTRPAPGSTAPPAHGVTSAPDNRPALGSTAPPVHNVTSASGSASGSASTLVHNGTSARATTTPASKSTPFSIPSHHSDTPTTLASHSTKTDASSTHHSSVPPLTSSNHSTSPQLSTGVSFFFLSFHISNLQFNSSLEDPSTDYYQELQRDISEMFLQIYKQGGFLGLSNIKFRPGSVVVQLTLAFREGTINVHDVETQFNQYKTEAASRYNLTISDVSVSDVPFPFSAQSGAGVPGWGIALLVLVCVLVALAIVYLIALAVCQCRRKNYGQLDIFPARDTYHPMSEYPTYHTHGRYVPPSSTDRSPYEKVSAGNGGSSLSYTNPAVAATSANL

B1: Anti-TnMUC1 murine monoclonal antibody clone 5E5 (antibody, V domains shown)
VH: QVQLQQSDAELVKPGSSVKISCKASGYTFTDHAIHWVKQKPEQGLEWIGHFSPGNTDIKYNDKFKGKATLTVDRSSSTAYMQLNSLTSEDSAVYFCKTSTFFFDYWGQGTTLTVSS
VL: ELVMTQSPSSLTVTAGEKVTMICKSSQSLLNSGDQKNYLTWYQQKPGQPPKLLIFWASTRESGVPDRFTGSGSGTDFTLTISSVQAEDLAVYYCQNDYSYPLTFGAGTKLELK
notes: also called 5E5 mAb; mAb 5E5
As to B1, the binding result is “binds”.
